Target: FANCD2 (Homo sapiens, UniProt Q9BXW9 1-1451)
Assay: EMSA; 200 ng protein; 20 mM HEPES pH 7.6, 5 mM EDTA, 1 mM DTT, 150 mM KCl, 50 mM (NH4)2SO4, 1% Tween-20; 20 min, room temperature; native 4% PAGE
Details: protein: recombinant; tags: His6 removed by thrombin; label: 32P; blunt (duplex implied; only one strand printed for EMSA)

FANCD2, sequence (Q9BXW9 whole entry): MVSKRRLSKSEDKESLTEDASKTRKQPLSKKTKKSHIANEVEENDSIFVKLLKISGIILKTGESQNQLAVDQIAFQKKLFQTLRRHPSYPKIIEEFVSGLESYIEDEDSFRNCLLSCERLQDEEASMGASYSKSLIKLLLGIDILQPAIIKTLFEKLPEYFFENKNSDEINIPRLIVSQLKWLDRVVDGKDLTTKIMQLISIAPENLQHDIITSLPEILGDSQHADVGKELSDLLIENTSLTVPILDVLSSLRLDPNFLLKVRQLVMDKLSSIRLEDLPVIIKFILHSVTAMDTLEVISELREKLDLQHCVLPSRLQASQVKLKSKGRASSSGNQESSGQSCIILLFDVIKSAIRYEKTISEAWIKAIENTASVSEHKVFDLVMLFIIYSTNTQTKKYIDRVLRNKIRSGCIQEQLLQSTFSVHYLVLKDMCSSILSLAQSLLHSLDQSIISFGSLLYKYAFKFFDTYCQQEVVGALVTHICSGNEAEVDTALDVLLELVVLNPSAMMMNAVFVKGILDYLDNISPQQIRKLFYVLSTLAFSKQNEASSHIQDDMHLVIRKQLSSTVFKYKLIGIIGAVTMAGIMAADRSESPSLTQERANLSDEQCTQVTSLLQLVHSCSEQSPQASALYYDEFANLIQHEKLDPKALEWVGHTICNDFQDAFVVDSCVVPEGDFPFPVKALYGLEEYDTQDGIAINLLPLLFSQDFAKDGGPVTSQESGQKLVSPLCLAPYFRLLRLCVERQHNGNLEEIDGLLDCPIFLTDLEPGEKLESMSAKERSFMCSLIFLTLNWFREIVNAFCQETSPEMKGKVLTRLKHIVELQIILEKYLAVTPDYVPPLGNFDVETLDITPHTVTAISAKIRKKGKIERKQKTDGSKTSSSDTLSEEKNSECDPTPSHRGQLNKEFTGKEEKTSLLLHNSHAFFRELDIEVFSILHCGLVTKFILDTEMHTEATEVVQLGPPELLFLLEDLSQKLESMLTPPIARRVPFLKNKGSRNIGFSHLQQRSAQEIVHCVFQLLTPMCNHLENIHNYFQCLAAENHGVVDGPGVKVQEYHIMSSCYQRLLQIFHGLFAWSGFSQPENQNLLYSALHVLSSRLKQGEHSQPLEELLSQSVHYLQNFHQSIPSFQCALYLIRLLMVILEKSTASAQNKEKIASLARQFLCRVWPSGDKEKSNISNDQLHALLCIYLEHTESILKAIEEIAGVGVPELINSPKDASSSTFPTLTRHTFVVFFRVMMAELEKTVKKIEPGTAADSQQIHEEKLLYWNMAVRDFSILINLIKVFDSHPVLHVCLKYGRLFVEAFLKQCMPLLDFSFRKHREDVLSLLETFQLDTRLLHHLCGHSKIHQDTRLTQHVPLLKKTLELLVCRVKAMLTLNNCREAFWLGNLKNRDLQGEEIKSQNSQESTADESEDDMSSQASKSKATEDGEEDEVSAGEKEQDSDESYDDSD

B1: kB1 (dsDNA)
DNA 1: GAGTATGGGGACCCCCCCTTAA
DNA 2: TTAAGGGGGGGTCCCCATACTC
B1: binds.

From article PMC3166142, “Direct Inhibition of TNF-α Promoter Activity by Fanconi Anemia Protein FANCD2”
